The subject of assay [1] is GGG-functionalized amphiphilic diblock polypeptide. The experiment in a line: GGG-diblock functionalization. Type of assay: biochemical. As to conditions: Alexa Fluor 488-LAETG or 647-LPESG, 1 hour. As for the experimental part:
Amphiphilic diblock polypeptide (Diblock) was co-incubated with Alexa Fluor® 488-LAETG (SEQ ID NO: 5), Alexa Fluor® 647-LPESG (SEQ ID NO: 3), eSrtA(2A-9), and/or eSrtA(4S-9). The reactions were analyzed by denaturing gel electrophoresis and visualized using either Coomassie stain (top), 488 fluorescence (bottom, blue), or 647 fluorescence (bottom, red). Magenta denotes the overlap of blue and red fluorescence signals.
GGG-functionalized recombinant amphiphilic diblock polypeptide (Diblock), GGG-Diblock, was used as a substrate to test the orthogonality of the two evolved sortases in solution. GGG-Diblock based on elastin-mimetic polypeptide sequences was prepared as previously described (Kim et al. Self-Assembly of Thermally Responsive Amphiphilic Diblock Copolypeptides into Spherical Micellar Nanoparticles. Angewandte Chemie International Edition 49, 4257-4260, doi:10.1002/anie.201001356 (2010)) with slight changes in sequence by genetically incorporating an N-terminal triglycine motif. A complete amine acid sequence is GGG-VPGEG-[(VPGVG)(VPGEG)(VPGVG)(VPGEG)(VPGVG)]10-CCCCGG-[(IPGVG)2VPGYG(IPGVG)2]15-VPGYG (SEQ ID NO: 75). In a 0.6 mL Eppendorf tube, GGG-functionalized Diblock (10 μM) was mixed with fluorophore-peptide (0.1 μM), evolved sortase (15 μM) and CaCl2 (100 mM), then reacted for 1 hour at room temperature. […]

Assay [2] relates to SUMO-TEV site-FGF1-LPESG-His6. The experiment in a line: FGF dual labeling / circularization of GGG-FGF-LPESG. As to conditions: 0.2 eq enzyme, 10 or 100 μM Btn-LAETG, 4 hours. It is filed as biochemical. The method, then: SUMO-TEV site-FGF1-LPESG-His6 (SEQ ID NO: 27), 0.5 eq TEV protease, and either 0.2 eq eSrtA or eSrtA(2A-9) were incubated in the presence of 10 or 100 μM Btn-LAETG (SEQ ID NO: 5) for 4 hours. The protein contains a GGG near its N-terminus masked by a TEV protease cleavage site, and a LPESG (SEQ ID NO: 3) near its C-terminus to serve as a substrate for downstream conjugation. In situ digestion of the TEV cleavage site exposes an N-terminal GGG, which in theory can serve as the substrate for subsequent conjugation with an LAETG-containing peptide (SEQ ID NO: 5). […] His6: SEQ ID NO: 6.
SUMO-TEV-FGF-LPESG-His6 (SEQ ID NO: 27) conjugates were treated with 0.2 eq eSrtA(4S-9), 1 mM GGG-PEG and 10 mM CaCl2 in TBS and incubated at room temperature at 500 μL final volumes. These samples were then quenched by the addition of 100 μM H2N-LPESGG (SEQ ID NO: 38) peptide and 100 μL of pre-equilibrated Ni-NTA resin slurry in TBS, then incubated on ice for 15 minutes. This mixture was then passed through a 0.2 μm spin filter, diluted 1:10 into PBS+10 μM H2N-LPESGG (SEQ ID NO: 38) peptide, and concentrated against a 10 kDa MWCO spin concentrator to a final volume of 400 μL. This process was repeated five times to afford the crude SUMO-TEV-FGF-LPESGGG-PEG (SEQ ID NO: 39) conjugates. […] Protein concentrations were determined by BCA assay. […]

Where a chain is given by its changes, count along the chain named. In names and notes the source's numbering stands.

Chain of GGG-functionalized amphiphilic diblock polypeptide (as listed by the source): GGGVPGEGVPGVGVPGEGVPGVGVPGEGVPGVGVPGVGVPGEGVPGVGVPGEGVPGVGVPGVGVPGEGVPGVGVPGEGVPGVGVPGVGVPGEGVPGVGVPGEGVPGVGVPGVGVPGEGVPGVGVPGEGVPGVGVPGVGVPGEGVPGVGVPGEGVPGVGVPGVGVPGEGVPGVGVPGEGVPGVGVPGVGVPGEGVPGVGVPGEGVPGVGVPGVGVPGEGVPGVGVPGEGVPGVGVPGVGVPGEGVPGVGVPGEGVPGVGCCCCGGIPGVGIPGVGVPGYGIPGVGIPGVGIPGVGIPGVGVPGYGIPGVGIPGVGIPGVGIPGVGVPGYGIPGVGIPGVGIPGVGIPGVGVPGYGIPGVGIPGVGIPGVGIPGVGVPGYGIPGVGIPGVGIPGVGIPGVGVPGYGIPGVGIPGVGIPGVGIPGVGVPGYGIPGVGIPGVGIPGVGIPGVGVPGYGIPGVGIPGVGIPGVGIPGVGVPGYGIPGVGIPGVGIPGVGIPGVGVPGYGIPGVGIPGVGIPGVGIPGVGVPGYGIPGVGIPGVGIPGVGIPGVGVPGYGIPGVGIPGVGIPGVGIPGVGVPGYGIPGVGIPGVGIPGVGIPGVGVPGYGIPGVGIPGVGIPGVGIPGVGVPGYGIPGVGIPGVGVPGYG

B1: eSrtA(2A-9): P94R, S102C, A104H, E105D, K138P, K152I, N160K, K162H, T164N, D165A, K173E, I182V, K190E, T196S (protein)
chain: QAKPQIPKDKSKVAGYIEIPDADIKEPVYPGPATREQLNRGVCFHDENESLDDQNISIAGHTFIDRPNYQFTNLKAAKPGSMVYFKVGNETRIYKMTSIRKVHPNAVEVLDEQEGKDKQLTLVTCDDYNEETGVWESRKIFVATEVK
B1: the peptide-diblock conjugation result in assay [1] was “no detectable off-target substrate conjugation”. Besides, the “circularization of GGG-FGF-LPESG” value in assay [2] was “does not generate detectable levels of circularized GGG-FGF protein”.

B2: eSrtA (protein)
chain: QAKPQIPKDKSKVAGYIEIPDADIKEPVYPGPATREQLNRGVSFAEENESLDDQNISIAGHTFIDRPNYQFTNLKAAKKGSMVYFKVGNETRKYKMTSIRNVKPTAVEVLDEQKGKDKQLTLITCDDYNEETGVWETRKIFVATEVK
With B2, in assay [2], the “circularization of GGG-FGF-LPESG” value is on record as “resulting in circularization”.

B3: eSrtA(4S-9): P94R, N98D, S102C, A104V, A118T, F122A, K134R, F144L, D160N, D165A, I182V, E189F, K190E, K196T (protein)
chain: B2 chain with N39D, S43C, A45V, A59T, F63A, K75R, F85L, I123V, E130F
In the case of B3, the peptide-diblock conjugation entry in assay [1] is “no detectable off-target substrate conjugation”.

For the origin of these results see patent publication US10202593B2, “Evolved sortases and uses thereof” (President and Fellows of Harvard College, priority 2013, dated 2019).
